Laboratory results taken from patent CN113321730A.

Target: T1, hCLDN18.2 (human) (UniProt P56856)
T1 sequence (looked up): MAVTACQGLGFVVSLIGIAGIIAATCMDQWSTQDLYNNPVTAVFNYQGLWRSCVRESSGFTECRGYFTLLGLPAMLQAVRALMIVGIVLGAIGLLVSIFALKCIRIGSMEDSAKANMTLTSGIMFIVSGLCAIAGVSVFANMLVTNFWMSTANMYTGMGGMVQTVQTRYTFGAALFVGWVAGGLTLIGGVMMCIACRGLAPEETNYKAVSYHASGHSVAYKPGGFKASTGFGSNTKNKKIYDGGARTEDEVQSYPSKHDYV
Assay: FACS titration on 18.2-K562 cells (20 to 0.002 μg/mL), Anti-Human IgG FITC, MFI

B1: 抗体E1(C18-23-3G5-1E1) (antibody, V domains shown)
VH: EVQLQQSGPELVKPGASVKISCQASGYTFTDYYMNWVKQSHVKSLEWIGHINPKNGGTNYNQNFKDKATLTVDKSSSTAYMELRSLTSEDSAVYYCARIYYGNSFVYWGQGTLVTVSA
VL: DIVMTQSPSFLTVTAGEKVTLNCKSSQSLLNSGNQKSYLTWYQQKPGQPPKLLIYWASTRESGVPDRFIGSGSGTDFTLTISSVQAEDLAVYYCQNNYFYPVTFGAGTKLELK
Binder B1 has a 抗体亲和力 of 0.696 µg/mL.
